Experimental data taken from paper doi:10.1101/2022.09.21.508839.
Where “and” joins values, the source holds several entries; their conditions need not be identical. Identical values can stand only once.

Molecular target: F-type ATP synthase from bovine heart mitochondria (Bos taurus (bovine))
Test: native gel or EMSA

With “F-type ATP synthase from bovine heart mitochondria (complex)” the stoichiometry N was 2 and 4.
